From US8580267B2, “Immunocytokines for tumour therapy with chemotherapeutic agents” (Philogen S.p.A., priority 2008, dated 2013)
Positions count from the first letter of the chain named.

Experiments:
[1] = test system: subcutaneous U87 glioblastoma; assay: therapy study in subcutaneous glioma mouse model; settings: for effect on tumour growth: five administrations days 12-24, F16-IL2 20 μg i.v., temozolomide 0.525 mg i.p., temozolomide result by day 30
Method: Subcutaneous glioblastoma bearing mice were obtained by a s.c. flank injection of 5×10^6 U87 cells in 8-week old female BALB/c nude mice [66]. Twelve days after tumour cell implantation, when tumours had reached a size of 250-300 mm^3, mice were staged to maximize uniformity among the groups (n=5).
(§2) One group was injected i.v. (lateral tail vein) with 20 μg of F16-IL2 (corresponding to 6.6 μg of IL2) in a total volume of 100 μl PBS solution (Phosphate Buffer Saline), one was injected i.p. with 0.525 mg of temozolomide (corresponding to 75 mg/m^2) in a total volume of 150 μl saline 10% DMSO solution, a third group received both the i.v. injection of 20 μg F16-IL2 and the i.p. of 0.525 mg temozolomide, finally, the control group was injected i.p. with 150 μl of saline 10% DMSO.
(§3) A schedule of five total administrations was established: on days 12, 15, 18, 21, 24 from the tumour cell injection into mice (day 0).
(§4) Mice were monitored daily and tumours were measured with a digital caliper three times per week. Tumour volume was estimated using the formula: volume=length×width^2/2. Animals were sacrificed when tumours approached a volume of 3,000 mm^3 or when tumours turned necrotic and bleeding, according to the Swiss regulations and under a project license granted by the Veterinäramt des Kantons Zürich (198/2005).
Tumour volumes are shown as average ±SD or SE. Kaplan-Meier survival curves were performed to display therapeutic efficacy in the subcutaneous glioma model.

[2] = body weight of mice in the subcutaneous glioblastoma therapy study; type: in vivo, BALB/c nude mice
Method: as §2, §3, §4

subcutaneous U87 tumours = assay: quantitative biodistribution analysis in mice bearing subcutaneous U87 tumours; type: in vivo, BALB/c nude mice; settings: radioiodinated F16-IL2 i.v., 24 h after injection
Method: (§1) The in vivo targeting performance of F16-IL2 was evaluated by quantitative biodistribution analysis. […] Antibody immunoreactivity after labelling was evaluated by loading a sample of radiolabelled F16-IL2 onto TNC-A1-Sepharose resin, followed by radioactive counting of the flow-through and of the eluate fractions. Immunoreactivity, defined as the ratio between the counts of the eluted protein and the sum of the counts of the eluted and flow-through fractions, was 84%. Mice were sacrificed 24 hours after injection of F16-IL2 (10 μg, 3.6 μCi per mouse). Organs were weighed and radioactivity was counted with a Packard Cobra gamma counter. Radioactivity content of representative organs was expressed as the percentage of the injected dose per gram of tissue (% ID/g).

s.c. U87 tumours = assay: immunofluorescence assessment of tumour-infiltrating cells and microvascular density in subcutaneous glioma xenografts; type: in vivo, Balb/c nude mice; settings: anti-human IL2 staining, after three injections
Method: To evaluate the role of inflammatory cell responses in vivo, female Balb/c nude mice bearing s.c. U87 tumours (3 mice per group) were treated on days 12, 15 and 18 after tumour cell implantation with either saline 10% DMSO (i.p.), F16-IL2 (i.v.), temozolomide (i.p.), and F16-IL2 (i.v.) plus temozolomide (i.p.). Mice were sacrificed 24 hours after the third injection, and tumours were excised and snap-frozen in OCT. […]
Sections of 10 μm thickness were treated with ice-cold acetone, rehydrated in PBS and blocked with PBS 10% donkey serum+10% goat serum. […] Bound antibody was detected with fluorescent Alexa488- or Alexa594-coupled secondary antibodies (donkey anti-rat or goat anti-rabbit, BD Biosciences Pharmingen) and DAPI in a PBS 12% BSA solution.
In each tumour section, the staining given by the primary antibodies was quantified in three representative 10× microscopic images using the ImageJ software (http://rsb.info.nih.gov/ij/).

TNC-A1 = biological target: T1, TNC-A1 (Homo sapiens, UniProt P24821); assay: immunoreactivity after radiolabelling on TNC-A1-Sepharose resin; type: binding; settings: radiolabelled F16-IL2 on TNC-A1-Sepharose resin
T1 construct: loading a sample of radiolabelled F16-IL2 onto TNC-A1-Sepharose resin
T1 sequence (P24821 1076-1165 limits assumed): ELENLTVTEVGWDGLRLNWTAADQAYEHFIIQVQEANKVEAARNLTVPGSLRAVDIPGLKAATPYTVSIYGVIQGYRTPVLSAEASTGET
Method: as §1

A1 domain of tenascin-C = biological target: T2, A1 domain of tenascin-C (Homo sapiens, UniProt P24821); assay: immunohistochemistry on human glioblastoma specimens and U87 xenografts with F16; settings: biotinylated SIP format, 2 μg/ml; patterns and intensities comparable to L19
T2 construct: from tissue; host or cells: human glioblastoma surgical specimens; U87 glioblastoma xenografts grown s.c. in nude mice
T2 sequence (P24821 23-2201): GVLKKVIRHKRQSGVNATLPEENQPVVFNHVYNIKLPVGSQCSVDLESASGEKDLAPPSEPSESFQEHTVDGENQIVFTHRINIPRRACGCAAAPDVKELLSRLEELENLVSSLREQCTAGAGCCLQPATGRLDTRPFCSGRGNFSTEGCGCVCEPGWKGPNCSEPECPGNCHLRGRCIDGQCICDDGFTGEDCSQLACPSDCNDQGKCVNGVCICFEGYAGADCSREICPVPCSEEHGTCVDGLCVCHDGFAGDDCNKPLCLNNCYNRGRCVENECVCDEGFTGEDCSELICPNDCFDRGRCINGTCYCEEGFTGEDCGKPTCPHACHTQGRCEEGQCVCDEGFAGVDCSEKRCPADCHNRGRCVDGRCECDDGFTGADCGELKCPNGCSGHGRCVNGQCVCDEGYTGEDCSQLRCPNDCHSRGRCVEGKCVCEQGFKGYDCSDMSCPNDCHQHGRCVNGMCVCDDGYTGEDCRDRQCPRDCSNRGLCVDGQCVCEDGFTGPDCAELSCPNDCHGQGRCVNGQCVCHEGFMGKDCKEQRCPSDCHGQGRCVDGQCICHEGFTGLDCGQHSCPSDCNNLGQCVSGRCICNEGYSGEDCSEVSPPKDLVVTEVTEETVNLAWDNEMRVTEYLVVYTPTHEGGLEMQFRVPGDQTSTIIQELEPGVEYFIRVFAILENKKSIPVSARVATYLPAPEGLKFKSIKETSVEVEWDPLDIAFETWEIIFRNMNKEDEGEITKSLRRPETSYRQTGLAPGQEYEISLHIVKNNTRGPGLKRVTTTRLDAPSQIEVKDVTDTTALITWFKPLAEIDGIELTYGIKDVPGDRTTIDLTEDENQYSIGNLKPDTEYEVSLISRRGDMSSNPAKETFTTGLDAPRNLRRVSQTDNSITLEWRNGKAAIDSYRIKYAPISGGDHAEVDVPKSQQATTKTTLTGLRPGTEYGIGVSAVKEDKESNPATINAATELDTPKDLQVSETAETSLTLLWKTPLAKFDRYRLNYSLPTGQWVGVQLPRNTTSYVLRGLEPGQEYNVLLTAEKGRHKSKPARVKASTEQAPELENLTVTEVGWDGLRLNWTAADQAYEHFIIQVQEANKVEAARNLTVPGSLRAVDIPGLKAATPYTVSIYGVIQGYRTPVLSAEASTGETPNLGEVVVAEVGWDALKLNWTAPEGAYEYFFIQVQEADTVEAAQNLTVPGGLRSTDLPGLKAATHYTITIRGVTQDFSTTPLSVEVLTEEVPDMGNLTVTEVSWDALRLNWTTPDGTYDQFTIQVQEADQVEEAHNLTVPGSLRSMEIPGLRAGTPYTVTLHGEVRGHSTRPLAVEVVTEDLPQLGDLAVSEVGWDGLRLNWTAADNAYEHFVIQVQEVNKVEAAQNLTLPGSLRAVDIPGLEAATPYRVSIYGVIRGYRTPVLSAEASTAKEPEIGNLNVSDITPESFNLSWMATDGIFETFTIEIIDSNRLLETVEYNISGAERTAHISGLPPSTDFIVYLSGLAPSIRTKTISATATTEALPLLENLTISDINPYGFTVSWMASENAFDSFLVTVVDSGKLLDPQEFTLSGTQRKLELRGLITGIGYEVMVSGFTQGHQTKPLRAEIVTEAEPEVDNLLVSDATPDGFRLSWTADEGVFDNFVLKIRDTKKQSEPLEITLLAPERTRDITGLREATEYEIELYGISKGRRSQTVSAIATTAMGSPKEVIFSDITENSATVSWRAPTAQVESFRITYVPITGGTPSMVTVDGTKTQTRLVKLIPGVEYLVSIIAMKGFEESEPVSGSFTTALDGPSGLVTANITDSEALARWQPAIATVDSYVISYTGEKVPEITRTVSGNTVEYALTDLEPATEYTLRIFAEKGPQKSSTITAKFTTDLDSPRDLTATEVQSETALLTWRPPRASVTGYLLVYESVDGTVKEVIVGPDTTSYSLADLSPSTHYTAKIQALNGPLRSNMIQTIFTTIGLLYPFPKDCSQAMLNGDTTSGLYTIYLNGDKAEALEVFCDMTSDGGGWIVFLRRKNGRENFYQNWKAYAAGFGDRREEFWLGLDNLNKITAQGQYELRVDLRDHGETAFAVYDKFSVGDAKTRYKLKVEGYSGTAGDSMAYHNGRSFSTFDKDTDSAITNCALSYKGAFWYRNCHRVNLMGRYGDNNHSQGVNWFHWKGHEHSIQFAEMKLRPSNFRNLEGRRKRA
Method: Freshly frozen human glioblastoma tissues were received from the Neurosurgery department of Basel University Hospital, Basel, Switzerland, and were stored at −80° C.
For immunohistochemical procedures, the F16 antibody was used in biotinylated small immunoprotein (SIP) format. F16 is a human monoclonal antibody specific to the extra-domain A1 of tenascin C [25]. […] The SIP antibody format consists of a covalent homodimer in which each monomeric unit comprises a scFv fused to a human CH4 domain of the secretory isoform S2 of human IgE (as exemplified for antibody L19 in ref. [65]). This domain promotes the formation of homodimers that are further stabilized by disulfide bonds between the C-terminal cysteine residues, resulting in a 75 kDa homobivalent miniantibody. This SIP antibody was further biotinylated in order to avoid background staining given by the human endogenous IgE.
Sections of 10 μm thickness were treated with ice-cold acetone, rehydrated in TBS (50 mM Tris, 100 mM NaCl, 0.001% Aprotinin, pH 7.4) and blocked with TBS 20% fetal calf serum. Biot-(SIP) F16 antibody was added onto the sections in a final concentration of 2 μg/ml. Bound antibody was detected with streptavidin-alkaline phosphatase complex (Biospa). Fast Red (Tablets Set, Sigma) was used as phosphatase substrate and sections were counterstained with Gill's hematoxylin no. 2 (Sigma). […]

[3] = biological target: T3, extra-domain A1 of tenascin C (Homo sapiens, UniProt P24821); assay: real-time interaction analysis on a BIAcore 3000 instrument; type: binding; settings: after affinity maturation
T3 construct: F16 is a human monoclonal antibody specific to the extra-domain A1 of tenascin C [25]
T3 sequence (P24821 1076-1165 limits assumed): T1 sequence (P24821 1076-1165 limits assumed)

tenascin-C = tenascin-C (Homo sapiens, UniProt P24821); assay: binding of F16 with Ala to Met mutation in VH CDR1; settings: Ala to Met in position 4 of VH CDR1
Sequence of tenascin-C (P24821 23-2201): as above

Molecule: Cn1nnc2c(C(N)=O)ncn2c1=O [temozolomide, 8-carbamoyl-3-methylimidazo[5,1-d]-1,2,3,5-tetrazin-4(3H)-one]
- mice in which tumours started growing again ([1]; by day 45): 3/5
- effect on tumour growth [1]: virtually complete tumour regression
- mice surviving over 3 months from the tumour cell injection ([1]; n=5 per group, combination group alive and tumour-free): two mice
- day before which the other animals were sacrificed ([1]; tumour had reached the cut-off size): < 106 days
- transient weight loss, nadir ([2]; after the fifth injection): 10%

Molecule: F16-IL2: clinical-stage immunocytokine consisting of human IL-2 fused to the human antibody F16, specific to the A1 domain of tenascin-C
- accumulation in the tumour (subcutaneous U87 tumours): 2.3 % ID/g
- tumour-to-blood ratio (subcutaneous U87 tumours): 11.5
- localization of the immunocytokine within the tumour (s.c. U87 tumours): perivascular region and in the tumour extracellular matrix
- immunoreactivity (eluted counts / eluted + flow-through counts) (TNC-A1): 84%
- sacrifice of the last mouse, day from tumour cell inoculation ([1]; Kaplan-Meier survival, cut-off tumour size 3,000 mm^3): 47 days
- effect on tumour growth [1]: minor tumour growth retardation
- weight loss ([2]; F16-IL2 20 μg i.v., five administrations): no weight loss

B1: F16: human monoclonal antibody specific to the extra-domain A1 of tenascin C; used in biotinylated SIP format for immunohistochemistry (antibody, V domains shown)
VH: EVQLLESGGGLVQPGGSLRLSCAASGFTFSRYGASWVRQAPGKGLEWVSAISGSGGSTYYADSVKGRFTISRDNSKNTLYLQMNSLRAEDTAVYYCAKAHNAFDYWGQGTLVTVSR
VL: SSELTQDPAVSVALGQTVRITCQGDSLRSYYASWYQQKPGQAPVLVIYGKNNRPSGIPDRFSGSSSGNTASLTITGAQAEDEADYYCNSSVYTMPPVVFGGGTKLTVL
- staining of tumour sections (A1 domain of tenascin-C): strongly stain both experimental U87 tumours and glioblastomas from patients
- dissociation constant [3]: low nanomolar range

B2: improved variant of F16: 4A1-F16 having the Ala to Met mutation in VH CDR1, giving VH CDR1 SEQ ID NO: 18 (antibody, V domains shown)
VH: B1 VH with A34M
VL: B1 VL
- binding affinity to tenascin-C (tenascin-C): retaining high affinity binding to tenascin-C
